Measurements reported in US20080113383A1, “Hif Prolyl Hydroxylase Activity Assay” (Fibro Gen, Inc., priority 2004, published 2008).
Where “and” joins values, the source holds several entries; their conditions need not be identical. Equal values may be shown once. Where no end group is shown, it is not given here. [ ]: non-standard residue; d: D form. ΔPro = O=C(O)[C@@H]1C=CCN1; Aze = O=C(O)[C@@H]1CCN1

Key:
Format in all cases: biochemical
EGLN1 [1] = target: T1, EGLN1 (Homo sapiens, UniProt Q9GZT9); test: Standard reaction (I): EGLN enzyme activity with hydroxylatable peptide substrate, 14CO2 release from 2-oxo[1-14C]glutaric acid; details: for specificity of peptide for EGLN1, EGLN2 and EGLN3 compared: standard reaction (I) peptides, from Table 1 and FIGS. 3, 4
Source text: (§1) Enzyme activity can be measured by monitoring the consumption of one or more reaction substrates, or accumulation of one or more reaction products. For example, enzyme activity in either the standard reaction (I) or the modified reaction (II) can be measured using a modified version of a method described by Kivirikko and Myllyla (1982, Methods Enzymol 82:245-304), which is based on the decarboxylation of 2-oxo[1-^14C]glutaric acid. In this method, radioactive ^14CO2 produced during the reaction is captured on base-impregnated filter papers and the captured radioactivity determined by liquid scintillation counting. In a particular embodiment, enzyme activity in standard reaction (I) was measured as described in Example 2 (infra).
(§2) In DLD19, methionine (M) residues were changed to alanine (A) residues due to potential oxidation of methionine during the assay reaction. Peptides used in the assay may additionally contain N-terminal and/or C-terminal blocking groups, e.g., N-terminal acetyl groups, C-terminal amide groups, etc. Enzyme activity in the presence of substrate peptides is provided supra as percent enzyme activity relative to enzyme activity in the presence of control peptide DTD20.
(§3) In all experiments, percent enzyme activity, e.g., as measured by substrate turnover, was less than 30% to insure all data obtained were in the linear range. Enzyme activity in standard reaction (I) was measured in a reaction volume of 1 mL containing EGLN enzyme preparation (10-400 μL), 0.05 μmole hydroxylatable peptide substrate, 0.1 μmole of 2-oxo[1-^14C]glutaric acid (160,000 dpm), 1 μmole of ascorbic acid, 60 μg of catalase and 50 μmole of HEPES buffer adjusted to pH 7.4 at 25° C. Optionally, 0.04 μmole FeSO4 was also be added to the reaction mix. Reactions were carried out at 37° C. for 20 minutes. In various reactions, ascorbate was replaced by 0.1 to 15 mM potassium ferrocyanide. Results are provided in Table 1 (supra) and FIGS. 3 and 4.

EGLN3 = EGLN3 (Homo sapiens, UniProt Q9H6Z9); test: as above
Source text: as §1, §2, §3

EGLN1 [2] = target: T1, EGLN1; test: Modified reaction (II): EGLN enzyme activity with non-hydroxylatable proline-analog peptide and reducing agent; details: modified reaction (II) peptides, from Tables 3, 4 and FIGS. 3, 4
Source text: The peptides shown in Table 3, which retain measurable activity in the present assay, are specifically contemplated for use in assays disclosed herein. These peptides are used in a reaction additionally requiring co-substrate 2-oxoglutarate and a reducing agent, e.g., ascorbate; an EGLN enzyme, and oxygen, as described below. The reaction may also include Fe^2+. The reaction proceeds according to the modified reaction (II), in which 2-oxoglutarate is converted to succinate and carbon dioxide, and the reducing agent is subsequently oxidized, e.g., ascorbate is oxidized to dehydroascorbate. […]
In still other embodiments, enzyme activity within the modified reaction (II) may be measured by disappearance of the reduced form of the reducing agent or appearance of the oxidized form of the agent. […] For example, when ascorbate is used in modified reaction (II), disappearance of ascorbate and/or appearance of dehydroascorbate may be measured, e.g., using HPLC. In particular embodiments, ascorbate may be added to modified reaction (II) in limiting quantity, and ascorbate is regenerated during the reaction with concomitant oxidation of NADH to NAD^+ using a modification of the method described by Diliberto and Allen (1981, J Biol Chem 256:3385-3393). […] HIF-PH activity is measured indirectly by consumption of NADH, which produces a reduction in absorbance at a wavelength of 340 nm. […]

EGLN2 = EGLN2 (Homo sapiens, UniProt Q96KS0); test: Standard reaction (I): EGLN enzyme activity with hydroxylatable peptide substrate, 14CO2 release from 2-oxo[1-14C]glutaric acid; details: Table 1; enzyme activity relative to control peptide DTD20; 37° C., 20 minutes, pH 7.4
Source text: as §1, §2, §3

[3] = Table 1, enzyme activity relative to control peptide DTD20, 37° C., 20 minutes, pH 7.4

EGLN3, sequence (Q9H6Z9 whole entry): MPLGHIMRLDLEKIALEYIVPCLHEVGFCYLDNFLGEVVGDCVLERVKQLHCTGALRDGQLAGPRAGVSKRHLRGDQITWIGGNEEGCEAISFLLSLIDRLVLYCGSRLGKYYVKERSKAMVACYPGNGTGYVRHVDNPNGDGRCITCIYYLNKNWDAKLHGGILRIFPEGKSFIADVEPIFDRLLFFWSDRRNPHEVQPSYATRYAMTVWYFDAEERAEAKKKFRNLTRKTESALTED
T1 sequence (Q9GZT9 whole entry): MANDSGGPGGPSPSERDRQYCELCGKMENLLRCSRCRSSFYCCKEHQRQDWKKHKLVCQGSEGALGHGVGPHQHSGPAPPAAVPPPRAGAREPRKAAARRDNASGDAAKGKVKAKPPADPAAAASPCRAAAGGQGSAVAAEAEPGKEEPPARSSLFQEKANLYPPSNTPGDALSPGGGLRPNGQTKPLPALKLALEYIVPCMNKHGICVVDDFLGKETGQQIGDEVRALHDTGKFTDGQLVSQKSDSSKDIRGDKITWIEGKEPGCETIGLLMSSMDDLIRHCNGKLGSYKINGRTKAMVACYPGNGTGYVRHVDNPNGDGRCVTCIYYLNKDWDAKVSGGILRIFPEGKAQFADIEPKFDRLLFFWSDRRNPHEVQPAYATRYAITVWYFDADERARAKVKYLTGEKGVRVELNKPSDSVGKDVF
EGLN2, sequence (Q96KS0 whole entry): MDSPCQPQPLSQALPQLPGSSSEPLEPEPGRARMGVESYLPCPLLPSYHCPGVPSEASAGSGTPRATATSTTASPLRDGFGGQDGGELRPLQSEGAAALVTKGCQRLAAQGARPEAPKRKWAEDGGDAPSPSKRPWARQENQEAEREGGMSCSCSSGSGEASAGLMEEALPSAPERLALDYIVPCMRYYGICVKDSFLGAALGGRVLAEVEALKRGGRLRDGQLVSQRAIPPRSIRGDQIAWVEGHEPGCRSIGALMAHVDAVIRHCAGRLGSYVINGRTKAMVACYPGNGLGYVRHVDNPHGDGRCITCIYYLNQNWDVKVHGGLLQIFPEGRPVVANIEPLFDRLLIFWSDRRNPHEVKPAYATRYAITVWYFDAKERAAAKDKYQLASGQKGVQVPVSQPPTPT

Substance | specificity of peptide for EGLN1, EGLN2 and EGLN3 compared (EGLN1 [1]) | hydroxylation of peptide by EGLN1 (EGLN1 [1]) | hydroxylation of peptide by EGLN3 (EGLN3) | further results
DTDLDLEARApYIPADDDFQ (DTDLDLEARAPYIPADDDFQ; not fully specified; printed as DTDLDLEARApYIPADDDFQ) [SEQ ID NO 15] | higher specificity for EGLN1 and EGLN2 than for EGLN3 |  |  | 
DTDLDWEMVApYIPADDDFQ (DTDLDWEMVAPYIPADDDFQ; not fully specified (residue 11); printed as DTDLDWEMVApYIPADDDFQ) [SEQ ID NO 92] |  | readily hydroxylated | readily hydroxylated | 
DTDLDLEALA4YIPADDDFQ (DTDLDLEALA[ΔPro]YIPADDDFQ) [SEQ ID NO 62, 4 = 3,4-dehydroproline in place of the hydroxylated proline] |  |  |  | specificity of proline-analog peptide for EGLN1, EGLN2 and EGLN3 compared (EGLN1 [2]): higher specificity for EGLN1 and EGLN2 than for EGLN3
DTDLDYEMIApYIPADDDFQ (DTDLDYEMIAPYIPADDDFQ; not fully specified (residue 11); printed as DTDLDYEMIApYIPADDDFQ) [SEQ ID NO 89] |  | readily hydroxylated | readily hydroxylated | 
DTDLDMEALApYIPADDDFQ (DTDLDMEALAPYIPADDDFQ; not fully specified (residue 11); printed as DTDLDMEALApYIPADDDFQ) [SEQ ID NO 13] | higher specificity for EGLN3 than for EGLN1 and EGLN2 |  |  | 
DTDLDIEALApYIPADDDFQ (DTDLDIEALAPYIPADDDFQ; not fully specified; printed as DTDLDIEALApYIPADDDFQ) [SEQ ID NO 24] | higher specificity for EGLN3 than for EGLN1 and EGLN2 |  |  | 
DTDLDLEALA8YIPADDDFQ (DTDLDLEALA[Aze]YIPADDDFQ) [SEQ ID NO 63, 8 = L-azetidine-2-carboxylate in place of the hydroxylated proline] |  |  |  | specificity of proline-analog peptide for EGLN1, EGLN2 and EGLN3 compared (EGLN1 [2]): higher specificity for EGLN3 than for EGLN1 and EGLN2
DTDLDWEMVSpYIPADDDFQ (DTDLDWEMVSPYIPADDDFQ; not fully specified (residue 11); printed as DTDLDWEMVSpYIPADDDFQ) [SEQ ID NO 90] |  | readily hydroxylated | readily hydroxylated | 
DTDLDFEALApYIPADDDFQ (DTDLDFEALAPYIPADDDFQ; not fully specified; printed as DTDLDFEALApYIPADDDFQ) [SEQ ID NO 19] | higher specificity for EGLN3 than for EGLN1 and EGLN2 |  |  | 
45 (DTDLDTEALAPYIPADDDFQ) [compound 45] |  |  |  | Activity (%) EGLN1 (EGLN1 [1]; [3]): 25.67% and 23.36%; Activity (%) EGLN2 (EGLN2): 20.49% and 18.04%; Activity (%) EGLN3 (EGLN3; [3]): 64.55% and 60.23%
DTDLDWEAVSpYIPADDDFQ (DTDLDWEAVSPYIPADDDFQ; not fully specified (residue 11); printed as DTDLDWEAVSpYIPADDDFQ) [SEQ ID NO 91] |  | readily hydroxylated | readily hydroxylated | 
